Patent publication US20200262898A1
Blank lines part the entries; values can stand above or below the binder they belong to.

Experiments:
[1] = biological target: CD147 (UniProt P35613); assay: flow cytometry on cells transfected with the target; signal over mock-transfected cells (background = 1.0)
[2] = biological target: Fc-binding protein (the ZZ domain of ProA); assay: flow cytometry on cells expressing the Fc-binding ZZ domain on their surface; given as a measure of expression
[3] = biological target: T1, CD151 (UniProt P48509); assay: flow cytometry on cells transfected with the target; signal over mock-transfected cells (background = 1.0)
T1 sequence (looked up): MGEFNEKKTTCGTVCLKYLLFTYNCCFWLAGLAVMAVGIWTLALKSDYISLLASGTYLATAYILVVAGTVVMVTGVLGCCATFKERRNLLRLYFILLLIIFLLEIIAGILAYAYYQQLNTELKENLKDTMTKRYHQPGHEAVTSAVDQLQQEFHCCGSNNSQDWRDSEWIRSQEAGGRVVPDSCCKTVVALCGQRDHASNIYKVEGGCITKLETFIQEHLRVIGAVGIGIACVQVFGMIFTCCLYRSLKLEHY

[4] = biological target: T2, IGSF8 (UniProt Q969P0); assay: as above
T2 sequence (looked up): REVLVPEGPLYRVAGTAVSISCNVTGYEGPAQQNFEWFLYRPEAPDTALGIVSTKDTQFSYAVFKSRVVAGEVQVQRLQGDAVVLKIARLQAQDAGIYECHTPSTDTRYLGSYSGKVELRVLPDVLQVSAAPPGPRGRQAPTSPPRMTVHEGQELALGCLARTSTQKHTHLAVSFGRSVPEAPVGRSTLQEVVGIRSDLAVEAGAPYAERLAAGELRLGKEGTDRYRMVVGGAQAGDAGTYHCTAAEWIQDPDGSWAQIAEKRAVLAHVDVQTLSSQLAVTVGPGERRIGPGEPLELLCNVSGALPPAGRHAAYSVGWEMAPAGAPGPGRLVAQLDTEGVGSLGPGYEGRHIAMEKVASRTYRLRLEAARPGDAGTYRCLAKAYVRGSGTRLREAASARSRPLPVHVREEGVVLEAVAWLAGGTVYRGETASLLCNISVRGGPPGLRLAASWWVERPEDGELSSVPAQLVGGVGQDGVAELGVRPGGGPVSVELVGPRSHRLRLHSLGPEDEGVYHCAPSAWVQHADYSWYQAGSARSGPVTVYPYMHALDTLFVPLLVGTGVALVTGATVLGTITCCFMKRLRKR

[5] = biological target: T3, CD59 (UniProt P13987); assay: as above
T3 sequence (looked up): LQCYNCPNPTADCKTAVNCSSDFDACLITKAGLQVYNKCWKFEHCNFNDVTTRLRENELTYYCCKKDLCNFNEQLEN

[6] = biological target: CD63 (UniProt P08962); assay: as above
[7] = biological target: T4, CD81 (UniProt P60033); assay: as above
T4 sequence (looked up): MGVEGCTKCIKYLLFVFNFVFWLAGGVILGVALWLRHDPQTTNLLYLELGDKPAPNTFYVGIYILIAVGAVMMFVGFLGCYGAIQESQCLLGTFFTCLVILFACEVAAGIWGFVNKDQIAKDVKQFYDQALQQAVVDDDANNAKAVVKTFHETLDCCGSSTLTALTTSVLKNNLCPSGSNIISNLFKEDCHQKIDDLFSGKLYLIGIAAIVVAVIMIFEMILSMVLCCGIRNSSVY

B3: Antibody of common light chain F10 (F10chicken) paired with the heavy chain against CD147 (antibody, V domains shown)
VH: AVTLDESGGGLQTPGGGLSLVCKASGFTFSSYAMYWVRQAPGKGLQWVAGISRDGSSGRYGAAVKGRATISRDNGQSTVRLQLNNLRAEDTATYFCAKSGYGDYTSADEIDAWGHGTEVIVSS
VL: ALTQPSSVSANPGETVKITCSGGYNGHYGWYQQKSPGSAPVTVIYSNNQRPSNIPSRFSGSTSGSTSTLTITGVRAEDEAVYFCGGYDSSAGIFGAGTTLTVL
S:B Binding [1]: 5.7 S:B | S:B Expression [2]: 15.5 S:B

B5: Antibody of common light chain F10 (F10chicken) paired with the heavy chain against IGSF8 (antibody, V domains shown)
VH: AVTLDESGGGLQTPGGGLSLVCKASGFSISSYEMQWVRQAPGKGLEWVAGIDDDGSSRAYAPAVKGRATISRDNGQSTVRLQLNNLRAEDTGTYYCAKTIYAATLNAGEIDAWGHGTEVIVSS
VL: B3 VL
S:B Binding [4]: 1.6 S:B | S:B Expression [2]: 11.9 S:B

B7: Antibody of common light chain F10 (F10chicken) paired with the heavy chain against CD63 (antibody, V domains shown)
VH: AVTLDESGGGLQTPGGALSLVCKASGFTFSDRGMHWVRQAPGKGLEWVAGIRSTGSFTLYGAAVKGRATISRDDGQSTLRLQLNNLRAEDTGTYYCAKSAGGYGCGRGWCGVDDIDAWGHGTEVIVSS
VL: B3 VL
S:B Binding [6]: 5.2 S:B | S:B Expression [2]: 15.5 S:B

B8: Antibody of common light chain F10 (F10chicken) paired with the heavy chain against CD81 (antibody, V domains shown)
VH: AVTLDESGGGLQTPGGALSLVCKASGFSIGDYNMGWVRQAPGKGLEWVAGIDAGGGTWRATAVKGRATISRDNGQSTVRLQLNNLRAEDTATYFCAKSTDSSANCCANSIDAWGHGTEVIVSS
VL: B3 VL
S:B Binding [7]: 0.4 S:B | S:B Expression [2]: 11.1 S:B

Results, then the binder that gave them:

S:B Binding [1]: 1.4 S:B
B1: Antibody of common light chain C11 (C11chicken) paired with the heavy chain against CD147 (antibody, V domains shown)
VH: B3 VH
VL: ALTQPSSVSANPGETVKITCSGGGSWYGSYYYGWYQQKSPGSAPVTLIYNNDKRPSDIPSRFSGSESGSTATLTITGVQAEDEAVYFCGGYDSTTTDMFGAGTTLTVL

S:B Binding [1]: 10.3 S:B
B2: Antibody of common light chain B9 (B9chicken) paired with the heavy chain against CD147 (antibody, V domains shown)
VH: B3 VH
VL: ALTQPSSVSANPGETVKITCSGGGSSNYYGWYQQKSPGSAPVTLIYGTNKRPSDIPSRFSGSKSGSTGTLTITGVQADDEAVYFCGSADSSTNAGIFGAGTTLTVL

S:B Binding [3]: 25.1 S:B | S:B Expression [2]: 13.7 S:B
B4: Antibody of common light chain F10 (F10chicken) paired with the heavy chain against CD151 (antibody, V domains shown)
VH: AVTLDESGGGLQMPGGALSLVCKASGFTFSSYGMEWVRQAPGKGLEWVAGISSGGGSTDYGTAVKGRATISRDNGQSTVRLQLNNLRAEDTGTYFCAKSAYGGTWDGDDIDAWGHGTEVIVSS
VL: B3 VL

S:B Binding [5]: 14.6 S:B | S:B Expression [2]: 12.2 S:B
B6: Antibody of common light chain F10 (F10chicken) paired with the heavy chain against CD59 (antibody, V domains shown)
VH: AVTLDESGGGLQTPGGGLSLVCKASGFDFSSFDMVWVRQAPGKGLEWVAGISYSNTDTSYAPAVDGRATISRDNGQSTVRLQLNNLRAEDSATYYCAKSAGGCCYRADNIDAWGHGTEVIVSS
VL: B3 VL
